Experimental data as given in article PMC8285477, “The molecular basis of regulation of bacterial capsule assembly by Wzc” (Nature Communications, 2021).

Experiments:
[1] = biological target: Wzc^K540M4YE (E. coli E69 (O9a:K30)); test: cryo-EM structure; purified protein ~2 mg/ml in LMNG, apo and with ADP and Mg2+; C1 and C8 reconstructions
[2] = biological target: Wzc^K540M4YE (E. coli E69 (O9a:K30)); test: cryo-EM 2D classification of particles; purified protein ~1.8-2 mg/ml vitrified on grids, reference-free 2D class averages
[3] = biological target: Wzc^K540M (E. coli E69 (O9a:K30)); test: negative-stain EM; purified protein around 0.05 mg/ml on carbon-coated grids, 0.75% uranyl formate
[4] = biological target: Wzc^K540M (E. coli E69 (O9a:K30)); test: cryo-EM structure; purified protein ~2 mg/ml in LMNG, apo and with ADP and Mg2+; C1 and C8 reconstructions
[5] = biological target: Wzc^K540M double (717 and 718) Tyr to Glu mutant (E. coli E69 (O9a:K30)) (UniProt P76387); test: EM (kind not stated); particles of purified Tyr to Glu mutants of Wzc^K540M on EM grids, percentage of octamers (Supplementary Fig. 8a)
[6] = biological target: Wzc^K540M triple (715, 717 and 718) Tyr to Glu mutant (E. coli E69 (O9a:K30)) (UniProt P76387); test: as above
[7] = biological target: Wzc^K540MΔMotif3 (E. coli E69 (O9a:K30)) (UniProt P76387); test: cryo-EM 2D classification of particles; purified protein ~1.8-2 mg/ml vitrified on grids, reference-free 2D class averages
Wzb treated Wzc = Wzb treated Wzc (E. coli E69 (O9a:K30), UniProt P76387 1-720); test: as above; conditions: both partners purified

Molecule: Wzc^K540M4YE (from UniProt P76387 1-720) (enzyme)
- stoichiometry N [1]: 8
- percent of particles that are octamers [2]: 50%

Molecule: Wzc^K540M (from UniProt P76387 1-720) (enzyme)
- stoichiometry N [3]: 8
- stoichiometry N [4]: 8

Molecule: Wzc^K540M double (717 and 718) Tyr to Glu mutant (from UniProt P76387 1-720) (enzyme)
- stoichiometry N [5]: 8

Molecule: Wzc^K540M triple (715, 717 and 718) Tyr to Glu mutant (from UniProt P76387 1-720) (enzyme)
- stoichiometry N [6]: 8

Molecule: Wzc^K540MΔMotif3 (from UniProt P76387 1-720) (enzyme)
- stoichiometry N [7]: 8

B1: Wzb treated Wzc (enzyme)
chain: MTSVTSKQSTILGSDEIDLGRVIGELIDHRKLIISITSVFTLFAILYALLATPIYETDALIQIEQKQGNAILSSLSQVLPDGQPQSAPETALLQSRMILGKTIDDLNLQIQIEQKYFPVIGRGLARLMGEKPGNIDITRLYLPDSDDISNNTPSIILTVKDKENYSINSDGIQLNGVVGTLLNEKGISLLVNEIDAKPGDQFVITQLPRLKAISDLLKSFSVADLGKDTGMLTLTLTGDNPKRISHILDSISQNYLAQNIARQAAQDAKSLEFLNQQLPKVRAELDSAEDKLNAYRKQKDSVDLNMEAKSVLDQIVNVDNQLNELTFREAEVSQLYTKEHPTYKALMEKRQTLQEEKSKLNKRVSSMPSTQQEVLRLSRDVESGRAVYLQLLNRQQELNIAKSSAIGNVRIIDNAVTDPNPVRPKKTIIIVIGVVLGLIVSVVLVLFQVFLRRGIESPEQLEEIGINVYASIPISEWLTKNARQSGKVRKNQSDTLLAVGNPADLAVEAIRGLRTSLHFAMMEAKNNVLMISGASPSAGKTFISSNLAATIAITGKKVLFIDADLRKGYAHKMFGHKNDKGLSEFLSGQAAAEMIIDKVEGGGFDYIGRGQIPPNPAELLMHPRFEQLLNWASQNYDLIIIDTPPILAVTDAAIIGRYAGTCLLVARFEKNTVKEIDVSMKRFEQSGVVVKGCILNGVVKKASSYYRYGHNHYGYSYYDKK
modifications: dephosphorylated by phosphatase Wzb; about 0.1% octameric particles; C-terminal His6 omitted; the PDB entity is the K540M construct, reverted to K540 / dephosphorylated by phosphatase Wzb; about 0.1%
- stoichiometry N (Wzb treated Wzc): 8
